The source of these data is paper PMC8729259 (RSC Chemical Biology, 2021).

The target of the test is T1, His-SUMO-tagged SARS-CoV-2 nsp14 N-terminal ExoN domain (residues 1 to 289) (SARS-CoV-2).
T1 chain: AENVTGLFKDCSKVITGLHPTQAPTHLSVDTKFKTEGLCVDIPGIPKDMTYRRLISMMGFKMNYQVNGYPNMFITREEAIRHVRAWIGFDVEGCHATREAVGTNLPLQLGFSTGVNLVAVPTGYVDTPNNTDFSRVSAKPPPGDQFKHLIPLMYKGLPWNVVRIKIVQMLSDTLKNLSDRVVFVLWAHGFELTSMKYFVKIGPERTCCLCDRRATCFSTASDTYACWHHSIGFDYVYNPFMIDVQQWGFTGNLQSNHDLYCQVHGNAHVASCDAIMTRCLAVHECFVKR
Put plainly: MST. The conditions noted are these: both partners purified.

B1: SARS-CoV-2 non-structural protein 10 (nsp10), full-length, without affinity tag (natural protein)
chain: AGNATEVPANSTVLSFCAFAVDAAKAYKDYLASGGQPITNCVKMLCTHTGTGQAITVTPEANMDQESFGGASCCLYCRCHIDHPNPKGFCDLKGKYVQIPTTCANDPVGFTLKNTVCTVCGMWKGYGCSCDQLREPMLQ
B1: the dissociation constant Kd (usually the constant that tells how readily two partners part at equilibrium) was found to be 900 ± 300 nM.
